Here are results for seven substances from patent US20190375786A1, “STABLE PEPTIDES AND METHODS OF USE THEREOF” (Fred Hutchinson Cancer Research Center, priority 2016, published 2019).

In data set [1] the target is trypsin (Sus scrofa, UniProt P00761). Nature of the data set: Trypsin digestion resistance of soluble peptide, RP-HPLC. The format is in vitro ADME, porcine. On the set-up: purchased Sigma Aldrich 6567. To be noted: 30 minutes at 37.5° C.; for Resistance to Trypsin (500 U/ml): 500 U/ml trypsin, HPLC peak vs untreated peptide. Summed up:
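Read-out was RP-HPLC (C-18, water/acetonitrile with 0.1% TFA, 5-45% over 10 min) of peptide left after trypsin treatment. Digest: 12.5 μg peptide, 500 U/ml porcine trypsin, PBS, 37.5° C for 30 min, stopped by soybean trypsin inhibitor; samples then reduced (10 mM DTT) or left non-reduced.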

A short description of data set [2]: Resistance to reduction by DTT, RP-HPLC. The format is physicochemical. Particulars: for Resistance to DTT Reduction (10 mM): 10 mM DTT in PBS, room temperature, 30 minutes, HPLC peak vs untreated peptide. Here is the method:
Peptides were first suspended in 500 ul of ddH2O to a stock concentration of 2 mg/ml. Reactions were prepared by adding 12.5 ug of peptide from the stock solution to a 10 mM solution of DTT in PBS and allowed to incubate at room temperature for 30 minutes. Other reactions were prepared with 12.5 μg peptide with or without 500 U/ml pepsin in simulated gastric fluid (SGF; pH 1.05; […] sodium chloride in 0.7% (v/v) hydrochloric acid) and were incubated for 30 minutes at 37.5° C. Some reactions were quenched with a final concentration of 100 mM Tris base and 10 mM dithiothreitol (DTT). Some reactions were performed in all of the above components, including simulated gastric fluid, pepsin, Tris, and DTT (referred to as SPTD). Reversed phase HPLC (RP-HPLC) was run on samples using an Agilent 1260 HPLC equipped with a C-18 Poroshell 120B column. Sample were analyzed by a gradient method with a mobile phase of Solvent A (water with 0.1% TFA) and Solvent B (acetonitrile with 0.1% TFA). Solvent B was ramped up from 5%-45% of the mobile phase over a period of 10 minutes. Peptides were detected at an absorbance of 214 nm and 280 nm.
Peptides were first suspended in 500 μl of ddH2O to a stock concentration of 2 mg/ml. Reactions were prepared by adding 12.5 μg of peptide from the stock solution to a 10 mM solution of DTT in PBS and allowed to incubate at room temperature for 30 minutes. Other reactions were prepared with 12.5 μg peptide and 500 U/ml trypsin in 25 mM Tris/75 mM NaCl buffer (pH 7.0) and incubated for 30 minutes at 37.5° C. These reactions were then quenched with 5 μg of soybean trypsin inhibitor (I) and, in some cases, 10 mM dithiothreitol (DTT). Reversed phase HPLC (RP-HPLC) was run on samples using an Agilent 1260 HPLC equipped with a C-18 Poroshell 120B column. Sample were analyzed by a gradient method with a mobile phase of Solvent A (water with 0.1% TFA) and Solvent B (acetonitrile with 0.1% TFA). Solvent B was ramped up from 5%-45% of the mobile phase over a period of 10 minutes. For testing pepsin digestion resistance, reactions were prepared with 12.5 μg peptide with or without 500 U/ml pepsin in simulated gastric fluid (SGF; pH 1.05; […] sodium chloride in 0.7% (v/v) hydrochloric acid) and were incubated for 30 minutes at 37.5° C. For testing temperature resistance, peptides were incubated at 70° C., 75° C., or 100° C. for one hour in 0.5 mM PBS, pelleted, and then the supernatant was analyzed by HPLC.
This example illustrates peptide stability in biological conditions including in the presence of reducing agents, proteases, oxidative conditions, acidic conditions, and simulated gastric fluids. […] Various peptides were suspended in 500 μl of ddH2O at a stock concentration of 2 mg/ml. This was then diluted in accord with the reaction conditions to prevent adverse buffering effects. Reactions were prepared with 12.5 μg peptide dissolved in solution and, in some samples, additionally suspended in a 10 mM solution of DTT, simulated gastric fluid (pH 1.05; […] sodium chloride in 0.7% (v/v) hydrochloric acid), 500 U pepsin (5000 U/ml pepsin), 50 U trypsin (500 U/ml trypsin) with 1 mg/ml inhibitor in PBS, or a combination of any of these conditions. All protease reactions were incubated for 30 min at room temperature and then quenched. Pepsin reactions were quenched by adding Tris base to a final concentration of 0.075 M. Trypsin reactions were quenched by adding excess soybean trypsin inhibitor. RP-HPLC was then run on samples using an Agilent 1260 HPLC equipped with a C-18 Poroshell 120B column. Sample were analyzed by a gradient method with a mobile phase of Solvent A (water with 0.1% TFA) and Solvent B (acetonitrile with 0.1% TFA). Solvent B was ramped up from 5%-45% of the mobile phase over a period of 10 minutes.
FIG. 18 illustrates high performance liquid chromatograph (HPLC) traces of peptides in non-reducing (NR) conditions (solid trace) or in 10 mM DTT reducing (R) conditions (dashed trace). […]

Chain of trypsin (P00761 9-231): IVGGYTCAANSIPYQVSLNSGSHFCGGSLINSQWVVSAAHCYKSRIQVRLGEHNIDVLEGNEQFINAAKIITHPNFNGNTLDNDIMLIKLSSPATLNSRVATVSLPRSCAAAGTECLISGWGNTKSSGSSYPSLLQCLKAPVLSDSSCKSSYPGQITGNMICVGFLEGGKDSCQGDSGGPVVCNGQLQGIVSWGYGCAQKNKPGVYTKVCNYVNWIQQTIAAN

Consider “1 (GSDCLPHLRRCRADNDCCGRRCRRRGTNAERRCR) [compound 1]”, for which, in data set [1], the “Resistance to Trypsin (500 U/ml)” value is “Moderate (A peptide classified as medium indicates that about half (between 25% and 75%) of the HPLC peak of the treated peptide disappeared as compared to the HPLC peak of the untreated peptide)”. The “Resistance to DTT Reduction (10 mM)” value in data set [2] is recorded as “Low (A peptide classified as low indicates that the majority (over 75%) of the HPLC peak of the treated peptide disappeared as compared to the HPLC peak of the untreated peptide)”.

On to “26 (GSVGCEECPMHCKGKNANPTCDDGVCNCNV) [compound 26]”, for which the “Resistance to Trypsin (500 U/ml)” value in data set [1] was “Moderate (A peptide classified as medium indicates that about half (between 25% and 75%) of the HPLC peak of the treated peptide disappeared as compared to the HPLC peak of the untreated peptide)”. Besides, the “Resistance to DTT Reduction (10 mM)” value in data set [2] is given as “Low (A peptide classified as low indicates that the majority (over 75%) of the HPLC peak of the treated peptide disappeared as compared to the HPLC peak of the untreated peptide)”.

As to “40 (GSPDEYIERAKECCKKGDIQCCLRYFEESGDPNVMLICAFCP) [compound 40]”, the “Resistance to DTT Reduction (10 mM)” value in data set [2] was “Low (A peptide classified as low indicates that the majority (over 75%) of the HPLC peak of the treated peptide disappeared as compared to the HPLC peak of the untreated peptide)”.

Regarding “41 (GSPDEYIERAKECCKKGDIQCCLRYFEESGDPNVMLICLACP) [compound 41]”, the “Resistance to DTT Reduction (10 mM)” value in data set [2] is listed as “Low (A peptide classified as low indicates that the majority (over 75%) of the HPLC peak of the treated peptide disappeared as compared to the HPLC peak of the untreated peptide)”.

Turning to “42 (GSFGLYDNQCATSDACSAICKYWTGSGQGKCQNNQCRCY) [compound 42]”, the “Resistance to DTT Reduction (10 mM)” value in data set [2] is on record as “Low (A peptide classified as low indicates that the majority (over 75%) of the HPLC peak of the treated peptide disappeared as compared to the HPLC peak of the untreated peptide)”.

Turning to “44 (GSPDEYIERAKECCKKQDIQCCLRIFDESGDPNVMLICLFCW) [compound 44]”, in data set [2], the “Resistance to DTT Reduction (10 mM)” value was “Moderate (A peptide classified as medium indicates that about half (between 25% and 75%) of the HPLC peak of the treated peptide disappeared as compared to the HPLC peak of the untreated peptide)”.

Turning to “GSDCLPHLRRCRADNDCCGRRCRRRGTNAERRCR [SEQ ID NO: 1]”, the “resistance to trypsin digestion (in words)” value in data set [1] (500 U/ml trypsin (50 U per reaction), HPLC) was “partially resistant”. The “resistance to reduction by DTT (in words)” value in data set [2] (10 mM DTT, HPLC vs non-reduced peptide) is recorded as “not resistant”.
